Source: US20100009439A1
Each block holds one binder with its values, some of them ahead of it.

Experiments:
Details in all cases: remark: other sources report otherwise
[1] = biological target: T1, purified full-length human IGF-I receptor (human), P08069; assay: ELISA, hybridoma supernatant on coated purified human IGF-I receptor
[2] = biological target: T1, purified full-length human IGF-I …; assay: ELISA titration on biotinylated human IGF-I receptor captured on streptavidin; non-linear regression for one-site binding
[3] = biological target: T1, purified full-length human IGF-I …; assay: ELISA titration on human IGF-I receptor, similar to that of the whole antibody

- absorbance units (405 nm) (absorbance units) [1]: 1.2
- Kd [2]: 0.1 nM
B1: murine EM164 antibody (antibody, V domains shown)
VH: QVQLQQSGAELVKPGASVKLSCKASGYTFTSYWMHWVKQRPGQGLEWIGEINPSNGRTNYNEKFKRKATLTVDKSSSTAYMQLSSLTSEDSAVYYFARGRPDYYGSSKWYFDVWGAGTTVTVS
VL: DVLMTQTPLSLPVSLGDQASISCRSSQSIVHSNVNTYLEWYLQKPGQSPKLLIYKVSNRFSGVPDRFSGSGSGTDFTLRISRVEAEDLGIYYCFQGSHVPPTFGGGTKLEIKR
modifications: here or on the partner: biotinylated with PEO-maleimide-biotin in the captured format

- Kd [3]: 0.3 nM
B2: Fab fragment of EM164 antibody (Fab, V domains shown)
VH: B1 VH
VL: B1 VL
modifications: here or on the partner: biotinylated with PEO-maleimide-biotin in the captured format
